Data set [1] deals with TALEN TN3 (FokI ELD-S/KKR-S) (Artificial). The experiment in a line: cell_activity. Conditions: pair with TN8; maximum in one DMD myoblast line (6.8% in the other); Surveyor; site preceded by 5'T.
For data set [2], the system named is TALEN TN8 (FokI ELD-S/KKR-S) (Artificial). Description: cell_activity. Conditions: pair with TN3; maximum in one DMD myoblast line (6.8% in the other); Surveyor; site preceded by 5'T.

“AGCTCCTACTCAGACT (double strand) [TN3 half-site]” displayed an activity (% alleles modified) in data set [1] of 12.7.
Sequence “CCTTAGTAACCACAGGT (double strand) [TN8 half-site]” showed an activity (% alleles modified) in data set [2] of 12.7.

The values are drawn from US20150079064.
